{"source": "patent US20260055369A1", "about": "(H LEE MOFFITT CANCER CENTER AND RESEARCH INSTITUTE, published 2026)", "key": {"[1]": {"target": "T1, Notch1 on CHO-K1 N1-Gal4 fluorescent reporter cells (UniProt P46531 19-2555, limits assumed)", "T1 sequence (P46531 19-2555 limits assumed)": "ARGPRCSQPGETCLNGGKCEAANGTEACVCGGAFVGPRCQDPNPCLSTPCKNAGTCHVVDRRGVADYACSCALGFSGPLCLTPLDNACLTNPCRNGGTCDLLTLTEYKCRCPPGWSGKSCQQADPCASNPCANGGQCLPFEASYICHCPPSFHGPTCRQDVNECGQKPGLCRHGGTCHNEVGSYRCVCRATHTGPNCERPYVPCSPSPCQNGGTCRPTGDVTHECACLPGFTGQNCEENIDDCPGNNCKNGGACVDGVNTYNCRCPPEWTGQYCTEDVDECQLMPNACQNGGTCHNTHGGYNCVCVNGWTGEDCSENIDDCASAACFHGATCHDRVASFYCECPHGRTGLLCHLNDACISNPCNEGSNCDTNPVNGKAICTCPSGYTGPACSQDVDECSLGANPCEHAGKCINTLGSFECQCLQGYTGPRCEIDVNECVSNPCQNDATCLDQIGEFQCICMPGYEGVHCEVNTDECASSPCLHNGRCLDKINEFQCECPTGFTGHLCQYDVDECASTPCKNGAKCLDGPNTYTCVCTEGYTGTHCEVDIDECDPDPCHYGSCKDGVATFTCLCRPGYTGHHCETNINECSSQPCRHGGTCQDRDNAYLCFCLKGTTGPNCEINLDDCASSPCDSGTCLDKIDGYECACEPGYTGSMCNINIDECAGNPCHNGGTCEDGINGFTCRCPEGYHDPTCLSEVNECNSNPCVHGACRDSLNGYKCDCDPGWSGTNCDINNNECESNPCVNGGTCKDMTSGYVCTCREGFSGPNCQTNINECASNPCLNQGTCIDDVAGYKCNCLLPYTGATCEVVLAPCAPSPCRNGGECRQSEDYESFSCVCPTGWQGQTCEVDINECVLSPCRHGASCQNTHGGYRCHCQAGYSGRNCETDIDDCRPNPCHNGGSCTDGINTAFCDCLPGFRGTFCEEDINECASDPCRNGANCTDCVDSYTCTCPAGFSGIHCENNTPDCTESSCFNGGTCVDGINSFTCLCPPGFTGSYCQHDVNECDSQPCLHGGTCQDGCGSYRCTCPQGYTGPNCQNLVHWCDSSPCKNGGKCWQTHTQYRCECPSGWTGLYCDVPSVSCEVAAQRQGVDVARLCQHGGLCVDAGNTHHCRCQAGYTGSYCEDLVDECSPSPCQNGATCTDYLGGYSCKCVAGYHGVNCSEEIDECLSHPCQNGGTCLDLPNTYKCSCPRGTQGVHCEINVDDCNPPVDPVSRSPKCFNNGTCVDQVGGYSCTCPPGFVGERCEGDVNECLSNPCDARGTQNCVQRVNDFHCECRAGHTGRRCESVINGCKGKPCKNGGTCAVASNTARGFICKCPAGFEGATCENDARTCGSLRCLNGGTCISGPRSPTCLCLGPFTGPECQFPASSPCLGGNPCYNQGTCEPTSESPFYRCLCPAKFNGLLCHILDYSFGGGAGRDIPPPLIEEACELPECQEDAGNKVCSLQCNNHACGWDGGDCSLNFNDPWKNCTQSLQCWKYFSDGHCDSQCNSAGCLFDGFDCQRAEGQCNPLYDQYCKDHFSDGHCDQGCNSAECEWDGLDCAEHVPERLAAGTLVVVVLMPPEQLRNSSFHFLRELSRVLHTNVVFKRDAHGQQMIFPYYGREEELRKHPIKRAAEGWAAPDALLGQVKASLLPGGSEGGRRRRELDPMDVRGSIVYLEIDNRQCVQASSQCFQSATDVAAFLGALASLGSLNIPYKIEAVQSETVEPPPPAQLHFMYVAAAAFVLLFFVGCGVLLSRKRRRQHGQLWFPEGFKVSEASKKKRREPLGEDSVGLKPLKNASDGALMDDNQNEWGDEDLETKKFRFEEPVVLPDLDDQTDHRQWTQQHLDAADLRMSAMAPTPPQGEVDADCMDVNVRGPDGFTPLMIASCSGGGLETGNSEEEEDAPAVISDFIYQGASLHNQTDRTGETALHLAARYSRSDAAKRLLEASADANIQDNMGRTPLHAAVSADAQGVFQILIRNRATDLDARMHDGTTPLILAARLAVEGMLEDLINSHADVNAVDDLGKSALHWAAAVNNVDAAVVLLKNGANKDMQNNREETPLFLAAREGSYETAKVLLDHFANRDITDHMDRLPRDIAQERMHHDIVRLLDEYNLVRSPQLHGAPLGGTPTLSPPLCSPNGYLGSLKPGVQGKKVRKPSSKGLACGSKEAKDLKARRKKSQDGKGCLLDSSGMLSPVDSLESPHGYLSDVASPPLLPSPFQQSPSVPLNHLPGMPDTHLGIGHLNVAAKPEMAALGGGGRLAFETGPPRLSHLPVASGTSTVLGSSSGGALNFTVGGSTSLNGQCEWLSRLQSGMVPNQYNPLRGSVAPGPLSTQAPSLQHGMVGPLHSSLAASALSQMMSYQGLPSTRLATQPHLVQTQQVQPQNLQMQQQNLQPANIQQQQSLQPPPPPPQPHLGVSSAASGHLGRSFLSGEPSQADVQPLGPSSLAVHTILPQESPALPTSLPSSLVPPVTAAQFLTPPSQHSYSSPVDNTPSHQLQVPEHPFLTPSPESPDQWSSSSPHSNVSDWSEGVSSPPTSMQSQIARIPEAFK", "assay": "cell-based or functional assay"}, "[2]": {"target": "Notch2 on U2OS Notch2-Gal4 luciferase reporter cells (human, UniProt Q04721 26-2471)", "assay": "cell-based or functional assay"}, "[3]": {"target": "Notch3 on U2OS Notch3-Gal4 luciferase reporter cells (human, UniProt Q9UM47 40-2321)", "sequence (Q9UM47 40-2321)": "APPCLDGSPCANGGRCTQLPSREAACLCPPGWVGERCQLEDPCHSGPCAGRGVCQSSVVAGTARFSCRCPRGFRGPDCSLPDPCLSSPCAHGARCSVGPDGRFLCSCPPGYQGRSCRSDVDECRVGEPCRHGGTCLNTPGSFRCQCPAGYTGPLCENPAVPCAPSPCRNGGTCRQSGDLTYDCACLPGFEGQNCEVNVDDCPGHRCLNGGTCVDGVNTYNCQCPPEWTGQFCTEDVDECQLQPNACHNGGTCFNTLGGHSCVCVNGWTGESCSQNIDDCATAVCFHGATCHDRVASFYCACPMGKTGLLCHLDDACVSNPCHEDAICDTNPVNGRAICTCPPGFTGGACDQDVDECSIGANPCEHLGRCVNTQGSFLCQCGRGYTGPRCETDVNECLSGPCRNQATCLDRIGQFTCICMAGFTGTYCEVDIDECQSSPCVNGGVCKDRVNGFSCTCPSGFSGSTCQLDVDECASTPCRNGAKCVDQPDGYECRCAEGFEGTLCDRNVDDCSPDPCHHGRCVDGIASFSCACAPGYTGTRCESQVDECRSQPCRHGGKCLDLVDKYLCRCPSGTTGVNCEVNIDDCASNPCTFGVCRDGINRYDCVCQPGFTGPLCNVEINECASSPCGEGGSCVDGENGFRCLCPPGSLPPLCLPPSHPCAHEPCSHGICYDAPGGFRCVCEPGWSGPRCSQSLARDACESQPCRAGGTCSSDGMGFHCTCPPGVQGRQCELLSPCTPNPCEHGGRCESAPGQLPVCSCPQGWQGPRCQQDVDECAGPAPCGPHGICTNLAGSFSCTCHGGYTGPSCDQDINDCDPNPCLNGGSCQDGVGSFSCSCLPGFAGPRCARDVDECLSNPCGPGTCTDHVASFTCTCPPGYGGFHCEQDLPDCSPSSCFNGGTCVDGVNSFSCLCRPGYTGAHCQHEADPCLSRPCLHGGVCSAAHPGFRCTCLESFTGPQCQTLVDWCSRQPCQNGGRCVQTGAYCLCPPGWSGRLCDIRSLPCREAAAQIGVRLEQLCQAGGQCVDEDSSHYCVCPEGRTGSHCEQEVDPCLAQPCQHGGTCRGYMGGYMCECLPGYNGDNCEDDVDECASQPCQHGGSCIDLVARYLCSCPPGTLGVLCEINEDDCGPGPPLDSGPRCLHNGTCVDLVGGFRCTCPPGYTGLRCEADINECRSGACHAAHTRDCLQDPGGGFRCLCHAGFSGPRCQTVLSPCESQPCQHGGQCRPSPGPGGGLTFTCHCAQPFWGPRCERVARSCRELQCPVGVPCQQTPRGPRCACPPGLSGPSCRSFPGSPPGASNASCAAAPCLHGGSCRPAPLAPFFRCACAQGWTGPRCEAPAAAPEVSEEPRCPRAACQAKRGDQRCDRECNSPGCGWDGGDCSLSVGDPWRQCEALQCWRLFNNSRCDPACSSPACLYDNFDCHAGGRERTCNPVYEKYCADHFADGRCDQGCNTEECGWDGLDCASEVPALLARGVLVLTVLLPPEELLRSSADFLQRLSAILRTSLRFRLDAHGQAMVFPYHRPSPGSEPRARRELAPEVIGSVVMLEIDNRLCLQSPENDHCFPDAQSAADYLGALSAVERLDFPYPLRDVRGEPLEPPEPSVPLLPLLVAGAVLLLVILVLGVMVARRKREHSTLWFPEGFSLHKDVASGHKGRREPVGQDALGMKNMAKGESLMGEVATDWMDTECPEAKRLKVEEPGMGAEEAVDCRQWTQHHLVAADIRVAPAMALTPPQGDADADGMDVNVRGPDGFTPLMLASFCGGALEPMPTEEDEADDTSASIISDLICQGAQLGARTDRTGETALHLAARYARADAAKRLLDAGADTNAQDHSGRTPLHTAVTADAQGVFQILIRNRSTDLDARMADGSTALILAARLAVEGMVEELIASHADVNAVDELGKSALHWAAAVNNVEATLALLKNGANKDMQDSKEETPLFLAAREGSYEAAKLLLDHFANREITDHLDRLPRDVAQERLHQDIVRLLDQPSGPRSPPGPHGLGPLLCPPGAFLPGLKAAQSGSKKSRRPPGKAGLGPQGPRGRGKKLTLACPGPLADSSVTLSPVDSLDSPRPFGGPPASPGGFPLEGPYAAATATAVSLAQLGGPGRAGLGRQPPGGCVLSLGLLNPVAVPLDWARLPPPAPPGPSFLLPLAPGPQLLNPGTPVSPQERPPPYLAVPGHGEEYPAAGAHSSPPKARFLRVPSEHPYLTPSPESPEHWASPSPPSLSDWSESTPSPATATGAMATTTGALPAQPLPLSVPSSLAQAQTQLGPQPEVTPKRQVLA", "assay": "cell-based or functional assay"}, "[4]": {"target": "Notch1 on U2OS hNotch1-Gal4 luciferase reporter cells (human, UniProt P46531 19-2555)", "sequence (P46531 19-2555)": "as the sequence (P46531 19-2555 limits assumed) above", "assay": "cell-based or functional assay"}, "[5]": {"target": "T1, Notch1 on CHO-K1 N1-Gal4 fluorescent …", "assay": "flow cytometry, ligand tetramers on Notch1-overexpressing CHO-K1 N1-Gal4 cells"}, "[6]": {"target": "T2, mouse Notch1 (EGF6-13, residues 221-526), biotinylated (mouse, UniProt Q01705 221-526, Biotinylated in vitro by BirA at the C-terminal BAP-tag (tag not in the letters).)", "T2 construct": "Immobilised on a streptavidin chip for SPR; also called mNotch1 EGF6-13; mNotch1 (6-13)", "T2 sequence": "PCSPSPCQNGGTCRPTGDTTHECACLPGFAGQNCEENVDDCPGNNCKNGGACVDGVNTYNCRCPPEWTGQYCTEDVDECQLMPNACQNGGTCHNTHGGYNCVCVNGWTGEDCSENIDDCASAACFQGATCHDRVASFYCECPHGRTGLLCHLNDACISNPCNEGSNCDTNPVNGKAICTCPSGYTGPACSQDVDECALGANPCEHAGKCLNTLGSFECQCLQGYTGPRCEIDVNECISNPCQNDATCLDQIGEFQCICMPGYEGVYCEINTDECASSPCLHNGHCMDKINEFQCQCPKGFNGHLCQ", "assay": "SPR steady-state binding isotherm, biotinylated mNotch1 (EGF6-13) on a streptavidin chip, DLL4 variant as analyte, response normalized to the maximum (100%)", "text": "Extended Data FIG. 5. Quantitation of mNotch1 binding to DLL4 variants, ligand adsorption, and Notch surface expression. a, SPR binding isotherms were fitted to a 1:1 binding model to determine the binding affinity between mNotch1 (6-13) and each DLL4 variant. b, Determination of plate adsorption for WT DLL4 and Delta^MAX by ELISA. Data represent mean values±s.d. of three biological replicates. c, Binding assay of WT DLL4 and Delta^MAX tetramers to Notch1 overexpressing CHO-K1 N1-Gal4 cells was measured by flow cytometry. Data represent mean values±s.d. of three biological replicates. d, The level of Notch1 expression on the surface of cell lines used in this study was determined by flow cytometry. Data represent mean values±s.d. of three biological replicates. e, Percentage of CD8⁺ T cells expressing Notch1 (upper graph) and Notch2 (bottom graph) on cell surface determined by flow cytometry after stimulation with K32-WT DLL4, K32-Delta^MAX, or K32 for 96 hours. Data represent mean values±s.e.m. of three biological replicates. Delta^MAX statistics are referred to WT DLL4. *P<0.05, ****P<0.0001 (Two-way ANOVA).\nEquilibrium dissociation constants were determined by surface plasmon resonance using a Biacore T200 instrument (GE Healthcare). […]"}}, "data": [{"binder": "WT DLL4 (N-EGF5, residues 27-400), C-terminally biotinylated (ligand, biotin on the C-terminal BAP-tag (BirA ligase)) SGVFQLQLQEFINERGVLASGRPCEPGCRTFFRVCLKHFQAVVSPGPCTFGTVSTPVLGTNSFAVRDDSSGGGRNPLQLPFNFTWPGTFSLIIEAWHAPGDDLRPEALPPDALISKIAIQGSLAVGQNWLLDEQTSTLTRLRYSYRVICSDNYYGDNCSRLCKKRNDHFGHYVCQPDGNLSCLPGWTGEYCQQPICLSGCHEQNGYCSKPAECLCRPGWQGRLCNECIPHNGCRHGTCSTPWQCTCDEGWGGLFCDQDLNYCTHHSPCKNGATCSNSGQRSYTCTCRPGYTGVDCELELSECDSNPCRNGGSCKDQEDGYHCLCPPGYYGLHCEHSTLSCADSPCFNGGSCRERNQGANYACECPPNFTGSNCEGLNDIFEAQKIEWHE", "values": [{"measurement": "EC50 of Notch1 activation, fluorescent reporter cells, biotinylated ligand on streptavidin plates", "setting": "[1]", "value": 16, "unit": "nM"}]}, {"binder": "DLL4^MAX (N-EGF5, residues 27-400), C-terminally biotinylated (ligand, biotin on the C-terminal BAP-tag (BirA ligase), Used coupled to streptavidin (plates, beads, or as tetramers for cell staining); also called biotinylated Delta^MAX; C-terminally anchored Delta^MAX; not shown: His-tag) SSVFQLQLQEFINERGVLASGRPCEPGCRTFFRVCLKHFQAVVSPGPCTFGTVSTPVLGTNSFAVRDDSSGGGRNPLQLPLNFTWPGTFSLIIEAWHAPGDDLRPEALPPDALISKFAIQGSLAVGQNWLLDEQTSTLTRLRYSYRVICSDNYYGDNCSRLCKKRNDYFGHYVCQPDGNPSCLPGWTGEYCQQPICLSGCHEQNGYCSKPAECLCRPGWQGRLCNECIPHPGCRHGTCSTPWQCLCDEGWGGLYCDQDLNYCTHHSPCKNGATCRNSGPRSYTCTCRPGYTGVDCELELSECDSNPCRNGGSCKDQEDGYHCLCPPGYYGLHCEHSTLSCADSPCFNGGSCRERNQGANYACECPPNFTGSNCEGLNDIFEAQKIEWHE", "values": [{"measurement": "luciferase reporter signalling at 50 nM immobilised ligand, against WT DLL4", "setting": "[2]", "value": 2.5, "unit": "fold"}, {"measurement": "luciferase reporter signalling at 50 nM immobilised ligand, against WT DLL4", "setting": "[3]", "value": 3, "unit": "fold"}, {"measurement": "EC50 of Notch1 activation, fluorescent reporter cells, biotinylated ligand on streptavidin plates", "setting": "[1]", "value": 1.7, "unit": "nM"}, {"measurement": "Notch1 reporter activity with 25 µm coated beads, against DLL4 microbeads", "setting": "[1]", "value": 4.5, "unit": "fold"}, {"measurement": "increase in Notch1 activation relative to control, Delta^MAX-coated streptavidin beads", "setting": "[4]", "value": 21, "unit": "fold"}, {"measurement": "increase in Notch1 activation relative to control, oriented coupling on streptavidin plates", "setting": "[4]", "value": 50, "unit": "fold"}, {"measurement": "luciferase reporter signalling at 50 nM immobilised ligand, against WT DLL4", "setting": "[4]", "value": 2, "unit": "fold"}, {"measurement": "fold increase of MFI compared to WT DLL4", "setting": "[5]", "value": 4.7, "unit": "fold"}]}, {"binder": "human wild-type DLL4 (N-EGF5, residues 27-400), non-biotinylated (ligand) SGVFQLQLQEFINERGVLASGRPCEPGCRTFFRVCLKHFQAVVSPGPCTFGTVSTPVLGTNSFAVRDDSSGGGRNPLQLPFNFTWPGTFSLIIEAWHAPGDDLRPEALPPDALISKIAIQGSLAVGQNWLLDEQTSTLTRLRYSYRVICSDNYYGDNCSRLCKKRNDHFGHYVCQPDGNLSCLPGWTGEYCQQPICLSGCHEQNGYCSKPAECLCRPGWQGRLCNECIPHNGCRHGTCSTPWQCTCDEGWGGLFCDQDLNYCTHHSPCKNGATCSNSGQRSYTCTCRPGYTGVDCELELSECDSNPCRNGGSCKDQEDGYHCLCPPGYYGLHCEHSTLSCADSPCFNGGSCRERNQGANYACECPPNFTGSNCEHHHHHHHH", "values": [{"measurement": "EC50 of Notch1 activation, fluorescent reporter cells, ligand non-specifically adsorbed to plates", "setting": "[1]", "value": 2.3, "unit": "ng/mm^2"}]}, {"binder": "DLL4.v1 (N-EGF5), non-biotinylated (ligand, also called human DLL4 with the five E12 mutations (Site 1+Site 2)) SSVFQLQLQEFINERGVLASGRPCEPGCRTFFRVCLKHFQAVVSPGPCTFGTVSTPVLGTNSFAVRDDSSGGGRNPLQLPLNFTWPGTFSLIIEAWHAPGDDLRPEALPPDALISKFAIQGSLAVGQNWLLDEQTSTLTRLRYSYRVICSDNYYGDNCSRLCKKRNDYFGHYVCQPDGNPSCLPGWTGEYCQQPICLSGCHEQNGYCSKPAECLCRPGWQGRLCNECIPHNGCRHGTCSTPWQCTCDEGWGGLFCDQDLNYCTHHSPCKNGATCSNSGQRSYTCTCRPGYTGVDCELELSECDSNPCRNGGSCKDQEDGYHCLCPPGYYGLHCEHSTLSCADSPCFNGGSCRERNQGANYACECPPNFTGSNCEHHHHHHHH", "values": [{"measurement": "EC50 (read off the curve)", "setting": "[6]", "value": "~100", "unit": "nM"}]}]}
